Assay results as given in PMC4569737, “Involvement of a eukaryotic-like ubiquitin-related modifier in the proteasome pathway of the archaeon Sulfolobus acidocaldarius” (Nature Communications, 2015).

B1: Saci0656 PAN (proteasome-activating nucleotidase) regulatory ATPase of S. acidocaldarius (enzyme, UniProt F2Z6H9 1-396, looked up)
chain: MFGDVDSYKNRENNNNYDETLVKLLEEKIEALTKEIDKLRQDLNWYKTELEKLLAPPYIEATILDILPDGKVIVRSSSGPNLVVNVATNVDVSKLKPGMSVALSQRGSTIIDILPNREDIIVKSFELIEKPNIHYSDIGGLEDQINELREVVELPLKNKKLFEELGIEPPKGVLLYGPPGTGKTMLAKAVAAESNATFIHVVASEFAQKFVGEGARIVREVFELARKKAPSIIFIDELDAIAARRIDIGTSGEREIQRTLMQLLAEIDGFKALDNVKIIAATNRIDILDPAILRPGRFDRLIEVPLPDEKGRKEIFKIYLQRMRINENDKLNYDLIAQLTDGFSGADIKNVCTEAGYMAIREGRESIKFQDIIRAIDKIKKKNLRKAINTRTEKYL
notes: ORF amplified from genomic DNA; also called PAN ATPase; PAN regulatory ATPase; source: E. coli Rosetta (DE3) pLysS, purified (details in the Supplementary Methods)
B2: Saci0662ΔN, N-terminally truncated Saci0662 β-subunit (without the pro-peptide), His-tagged (domain or fragment, S. acidocaldarius, UniProt Q4JAY3 7-195, looked up)
chain: TAIGIKTKDGVVLAAERRLSYGDFVLSKSARKVFKLGRFGIAGAGIVGDIQTLTRIMNVEIKYYEMYNSRKISARAAAKLLSVILYQNKVLPYISELLFGGVDEDGPKLFILDPIGSLIEDSYAAVGSGARVAIGVLEAEYNESLTSEAAKELAIKSMKSAVERDVMSGDGIDILIINKNNIYEDFIKI
notes: source: E. coli Rosetta (DE3) pLysS, co-expressed with Saci0613 (with or without Saci0909ΔN); in heat-clarified lysate, and purified as part of the complex (Ni-NTA IMAC, size exclusion chromatography); not shown: His tag, C-terminal, kept
B3: Saci0613 20S proteasome α-subunit, untagged (natural protein, S. acidocaldarius, UniProt Q4JB24 1-242, looked up)
chain: MALGPAAMGYDRAITIFSPDGSLYQVDYAFEAVKRGWTTLGVKTKSGVVLLAEKRKATQLLDVDGIEKIFMLDDHVGCTFAGLASDGRILIDYARSQALQHRLIYDEPISIEYLTKVISDVKQAYTQHGGVRPFGVALIVGGIDKGKQPKLLMTEPSGQFMPYYAVAIGQGGYTATEYLEKNYKEDLDIQSTILLALRALMATLKPGEKLNYSSVEIGYADVDSGTFKKLTTEERSDLLQKI
notes: 20S proteasome α-subunit, S. acidocaldarius DSM639, Saci0613; also called Saci0613 α; 0613 α-subunit; source: E. coli Rosetta (DE3) pLysS, co-expressed with β-subunit(s); in heat-clarified lysate, and purified as part of the complex (Ni-NTA IMAC, size exclusion chromatography)

Tests used:
[1] = target: the molecule itself; test: SEC-MALS; 100 μl protein complex at 2 mg/ml, Superdex 200 10/300 Increase GL, 20 mM Tris (pH 8.0), 300 mM NaCl, 25 °C
[2] = target: the molecule itself; test: negative-stain transmission electron microscopy; purified 20S complexes at 0.035 mg/ml on carbon-coated grids, 2% uranyl acetate

Protein	stoichiometry N [1]	binding result [2]
B1	6	
B2		binds
B3		binds
